System: Escherichia coli TOP10
Assay: shrunken log2 fold change of peptide-encoding DNA abundance (4.5 h post-induction vs induction); higher = less antimicrobial activity (less host growth inhibition)
Settings: time post-induction: 4.5 h; library: site-saturation at positions 5, 18, 19, 20
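Note: peptides expressed intracellularly from a pBAD plasmid library in pooled LB shake-flask culture, induced with 0.3% L-arabinose, DNA abundance read by NGS, three biological replicates, DESeq2 with apeglm shrinkage.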

Sequence	shrunken log2 fold change
RRIRDRPPRLPRPRPRPCPNPRP	-0.02
RRIRPRPPRLPRPRPRPIPVPRP	-0.402
RRIRNRPPRLPRPRPRPNEDPRP	0.00927
RRIRCRPPRLPRPRPRPMYFPRP	-0.796
RRIRNRPPRLPRPRPRPPDMPRP	0.0955
RRIRNRPPRLPRPRPRPCICPRP	-0.33
RRIRTRPPRLPRPRPRPHGHPRP	-0.136
RRIRERPPRLPRPRPRPPSFPRP	-0.126
RRIRLRPPRLPRPRPRPYVYPRP	-0.706
RRIRWRPPRLPRPRPRPSVWPRP	0.218
RRIRHRPPRLPRPRPRPSAQPRP	0.127
RRIRWRPPRLPRPRPRPPVLPRP	0.433
RRIRQRPPRLPRPRPRPQAIPRP	0.0712
RRIRARPPRLPRPRPRPFADPRP	0.438
RRIRRRPPRLPRPRPRPFWVPRP	0.236
RRIRTRPPRLPRPRPRPVFQPRP	-0.0322
RRIRTRPPRLPRPRPRPGHHPRP	-0.27
RRIRYRPPRLPRPRPRPAMHPRP	-0.045
RRIRDRPPRLPRPRPRPTCMPRP	-0.0434
RRIRLRPPRLPRPRPRPVHCPRP	-0.11
RRIRSRPPRLPRPRPRPCYAPRP	-0.478

Sequence	shrunken log2 fold change
RRIRKRPPRLPRPRPRPMQSPRP	0.995
RRIRLRPPRLPRPRPRPWYAPRP	-0.171
RRIRCRPPRLPRPRPRPSELPRP	-0.107
RRIRSRPPRLPRPRPRPWASPRP	-0.114
RRIRDRPPRLPRPRPRPQEIPRP	-0.00905
RRIRHRPPRLPRPRPRPTYQPRP	0.0668
RRIRPRPPRLPRPRPRPDCRPRP	-0.0347
RRIRIRPPRLPRPRPRPAIWPRP	0.0492
RRIRHRPPRLPRPRPRPRENPRP	0.0589
RRIRLRPPRLPRPRPRPKCGPRP	0.338
RRIRFRPPRLPRPRPRPHNQPRP	-0.75
RRIRYRPPRLPRPRPRPPDMPRP	-0.625
RRIRPRPPRLPRPRPRPGYKPRP	-0.141
RRIRGRPPRLPRPRPRPINYPRP	0.000824
RRIRHRPPRLPRPRPRPRSAPRP	0.356
RRIRTRPPRLPRPRPRPKNHPRP	-0.712
RRIRQRPPRLPRPRPRPVCLPRP	-0.161
RRIRERPPRLPRPRPRPWMVPRP	-0.685
RRIRNRPPRLPRPRPRPAHFPRP	0.292
RRIRNRPPRLPRPRPRPDQNPRP	-0.017
RRIRYRPPRLPRPRPRPRGRPRP	0.142

Sequence	shrunken log2 fold change
RRIRVRPPRLPRPRPRPYLHPRP	-0.879
RRIRRRPPRLPRPRPRPYCCPRP	-0.565
RRIRYRPPRLPRPRPRPTYWPRP	-0.318
RRIRHRPPRLPRPRPRPCTYPRP	-0.634
RRIRYRPPRLPRPRPRPVDIPRP	-0.00973
RRIRRRPPRLPRPRPRPIVVPRP	0.115
RRIRQRPPRLPRPRPRPAKAPRP	-0.101
RRIRCRPPRLPRPRPRPLDWPRP	0.285
RRIRRRPPRLPRPRPRPSMPPRP	-0.0915
RRIRQRPPRLPRPRPRPWTKPRP	-0.00887
RRIRARPPRLPRPRPRPFLHPRP	0.0154
RRIRVRPPRLPRPRPRPLCVPRP	1.22
RRIRFRPPRLPRPRPRPHKFPRP	-0.5
RRIRYRPPRLPRPRPRPSNRPRP	-0.134
RRIRCRPPRLPRPRPRPDATPRP	1.31
RRIRIRPPRLPRPRPRPIFSPRP	-0.181
RRIRTRPPRLPRPRPRPREDPRP	-0.147
RRIRERPPRLPRPRPRPVQSPRP	-0.015
RRIRARPPRLPRPRPRPFIFPRP	0.419
RRIRWRPPRLPRPRPRPPFRPRP	0.632
RRIRQRPPRLPRPRPRPNGTPRP	1.1

— the supplement of paper PMC9112550, “Optimization of the antimicrobial peptide Bac7 by deep mutational scanning” (BMC Biology, 2022)
